# Source: publication PMC12344899
# Key:
# Assay in all cases: anti-GFP affinity gel immunoprecipitation and western blot densitometry
# [1] = target: mCherry-A123; conditions: HEK293T cells co-transfected, lysed at 2 dpt; parent: est. 0.97; read off a plot
# [2] = target: mCherry-A44; conditions: HEK293T cells co-transfected, lysed at 2 dpt; parent: est. 1.0; read off a plot
# [3] = target: mCherry-A171; conditions: HEK293T cells co-transfected, lysed at 2 dpt; parent: est. 1.0; read off a plot
Substance,response (relative density (intrabody / Etf-2-GFP)) [1],response (relative density (intrabody / Etf-2-GFP)) [2],response (relative density (intrabody / Etf-2-GFP)) [3]
Etf-2 (full-length)–GFP (from UniProt Q2GHK1) Q245A,0.84,0.25,0.83
Etf-2 (full-length)–GFP (from UniProt Q2GHK1) R188A,0.94,1.1,0.85
Etf-2 (full-length)–GFP (from UniProt Q2GHK1) R188A; Q245A,0.1,0.24,0.88
